One data set deals with wild type PPO enzyme (Amaranthus tuberculatus, UniProt Q0NZW9). Description: PPO enzyme assay (recombinant), wild type. It counts as biochemical. The conditions noted are these: 150 μM Protogen.
The subject of data set [1] is Chlamydomonas reinhardtii. In words: Selection of mutagenized algae cells on solid medium with herbicide. The conditions noted are these: solid medium containing 1×10^−7 M.
Description: Algae cells of Chlamydomonas reinhardtii strains CC-503 and CC-1691 (Duke University, Durham, USA) are propagated in TAP medium (Gorman and Levine (1965) PNAS 54:1665-1669) by constant shaking at 100 rpm, 22° C. and 30 μmol Phot*m^−2*s^−2 light illumination. […] Compound screening is performed at 450 μmol Phot*m^−2*s^−2 illumination.
Sensitive strains of Chlamydomonas reinhardtii or Scenedesmus obliquus are mutated with 0.14 M ethylmethanesulfonate (EMS) for 1 h as described by Loppes (1969, 20 Mol Gen Genet 104:172-177) Tolerant strains are identified by screening of mutagenized cells on solid nutrient solution plates containing benzoxazinone-derivative herbicide of interest at low to lethal concentrations depending on compound activity in specific algae strain.
(A) Mutagenized cells plated on solid medium without a selecting agent. (B) Mutagenized cells plated on solid medium containing 1×10^−7 M benzoxazinone-derivative I.a.35.
Data set [2] in a line: Enzyme activity of recombinant wild type and substituted PPO enzymes. The conditions noted are these: fluorescence unit change per minute.

Where a chain is given by its changes, count along the chain named. Names may count otherwise.

As to `C#CCN1C(=O)C(F)(F)Oc2cc(F)c(-n3c(=O)n(C)c(=S)n(C)c3=O)cc21` [benzoxazinone 1.a.35], the IC50 at wild type PPO enzyme is 0.12 nM. The “growth of mutagenized Chlamydomonas reinhardtii cells (colony formation)” value in data set [1] is “susceptible cells do not grow”.

B1: F420M: amino acid substituted PPO enzyme F420M (protein, listed as Amaranthus tuberculatum)
chain: MVIQSITHLSPNLALPSPLSVSTKNYPVAVMGNISEREEPTSAKRVAVVGAGVSGLAAAYKLKSHGLSVTLFEADSRAGGKLKTVKKDGFIWDEGANTMTESEAEVSSLIDDLGLREKQQLPISQNKRYIARDGLPVLLPSNPAALLTSNILSAKSKLQIMLEPFLWRKHNATELSDEHVQESVGEFFERHFGKEFVDYVIDPFVAGTCGGDPQSLSMHHTFPEVWNIEKRFGSVFAGLIQSTLLSKKEKGGENASIKKPRVRGSFSFQGGMQTLVDTMCKQLGEDELKLQCEVLSLSYNQKGIPSLGNWSVSSMSNNTSEDQSYDAVVVTAPIRNVKEMKIMKFGNPFSLDFIPEVTYVPLSVMITAFKKDKVKRPLEGFGVLIPSKEQHNGLKTLGTLFSSMMFPDRAPSDMCLFTTMVGGSRNRKLANASTDELKQIVSSDLQQLLGTEDEPSFVNHLFWSNAFPLYGHNYDSVLRAIDKMEKDLPGFFYAGNHKGGLSVGKAMASGCKAAELVISYLDSHIYVKMDEKTA
For the molecule B1, the “Activity (FU/min)” value in data set [2] turned out to be 353 FU/min.

B2: F420L: amino acid substituted PPO enzyme F420L (protein, listed as Amaranthus tuberculatum)
chain: B1 chain with M420L
For the molecule B2, the “Activity (FU/min)” value in data set [2] was determined as 203 FU/min.

B3: R128A: amino acid substituted PPO enzyme R128A (protein, listed as Amaranthus tuberculatum)
chain: B1 chain with R128A, M420F
As to B3, the “Activity (FU/min)” value in data set [2] worked out at 731 FU/min.

As usually defined, the IC50 is the concentration needed to halve the response being measured.

These data come from patent US12570994B2, “Plants having increased tolerance to herbicides” (BASF AGRO B.V., priority 2010, dated 2026).
